Positions count from the first letter of the chain named. Names and notes keep the numbering of the source.
How the values were obtained:
[1] = substrate: N=C(N)NCCCCN; test: Kinetic and inhibition studies, Chimera A2; assay type: biochemical, human; settings: other: substrate = labelled compound, pH 9.5, 2 mM Mn2+
Description: (§1) Bacterial cultures were grown with shaking at 37 °C in Luria Broth media, in the presence of ampicillin (100 μg/mL). The wild-type and mutant human liver arginase cDNAs were directionally cloned into the pBluescript II KS(+) expression vector and then expressed in E. coli JM109, following induction with 1 mM isopropyl β-D-thiogalactopyranoside. The bacterial cells were disrupted by sonication on ice (5 × 30 s pulses), centrifuged for 20 min at 12,000× g, and the obtained supernatant was precipitated with ammonium sulfate (60% saturation). The pellet, collected by centrifugation at 12,000× g for 10 min, was re-suspended in buffer 5 mM Tris–HCl (pH 7.5) containing 2 mM MnCl2 and dialyzed for 6 h at 4 °C against the same buffer. After incubation with 5 mM MnCl2 for 10 min at 60 °C, the enzyme variants were purified as previously described [17]. The purity of the enzymes was evaluated by SDS–PAGE stained by Coomassie blue and immunodetection using an anti- rat arginase I antibody.
(§2) The single, double, triple, and chimera variants of human arginase type I were obtained by PCR, using the QuickChange site-directed mutagenesis kit (Stratagene, La Jolla, CA, USA); the plasmid pBluescript II KS(+) containing the human liver arginase cDNA was used as template. To obtain the chimeric species of human arginase type I, serial mutations were made in each loop to be modified, using as template DNA the wild-type arginase gene or the previous done mutation, subcloned in the plasmid pBluescript II KS (+).
(§3) All assays were initiated by adding the enzyme to a previously equilibrated buffer with the substrate in solution (the concentrations of used substrates were between 0.2–3 fold the Km). Urea was determined by a colorimetric method with α-isonitrosopropiophenone [38]. The protein concentrations were determined by the Bradford’s method, with bovine serum albumin as standard. Initial velocity and enzymatic inhibition experiments were performed in duplicate and repeated three times. […]

[2] = substrate: N=C(N)NCCCCN; test: Kinetic and inhibition studies, S137C-N139D mutant; assay type: biochemical, human; settings: other: substrate = labelled compound, pH 9.5, 2 mM Mn2+
Description: (§4) All assays were initiated by adding the enzyme to a previously equilibrated buffer with the substrate in solution (the concentrations of used substrates were between 0.2–3 fold the Km). Urea was determined by a colorimetric method with α-isonitrosopropiophenone [38]. […] Initial velocity and enzymatic inhibition experiments were performed in duplicate and repeated three times. The inhibitory patterns were initially determined by double reciprocal plots and re-plots of intercepts and slopes versus inhibitor concentrations. […] Velocities are expressed as μmol of urea/10 min.

[3] = substrate: N=C(N)NCCCCN; test: Kinetic and inhibition studies, S137C mutant; assay type: biochemical, human; settings: other: substrate = labelled compound, pH 9.5, 2 mM Mn2+
Description: as §1, §2, §3

[4] = substrate: N=C(N)NCCCCN; test: Kinetic and inhibition studies, N139D mutant; assay type: biochemical, human; settings: other: substrate = labelled compound, pH 9.5, 2 mM Mn2+
Description: as §1, §2, §3

[5] = substrate: N=C(N)NCCCCN; test: Kinetic and inhibition studies, triple mutant; assay type: biochemical, human; settings: other: substrate = labelled compound, pH 9.5, 2 mM Mn2+
Description: as §4

[6] = substrate: N=C(N)NCCCCN; test: Kinetic and inhibition studies, N130D-S137C mutant; assay type: biochemical, human; settings: other: substrate = labelled compound, pH 9.5, 2 mM Mn2+
Description: as §1, §2, §3

[7] = substrate: N=C(N)NCCCCN; test: Kinetic and inhibition studies, N130D mutant; assay type: biochemical, human; settings: other: substrate = labelled compound, pH 9.5, 2 mM Mn2+
Description: as §1, §2, §3

[8] = substrate: N=C(N)NCCCCN; test: Kinetic and inhibition studies, N130D-N139D mutant; assay type: biochemical, human; settings: other: substrate = labelled compound, pH 9.5, 2 mM Mn2+
Description: as §4

[9] = substrate: N=C(N)NCCCCN; test: Kinetic studies, E. coli agmatinase; assay type: biochemical; settings: other: substrate = labelled compound; n/a = no activity with the substrate; pH 9.5
Description: All assays were initiated by adding the enzyme to a previously equilibrated buffer with the substrate in solution (the concentrations of used substrates were between 0.2–3 fold the Km). Urea was determined by a colorimetric method with α-isonitrosopropiophenone. The protein concentrations were determined by the Bradford’s method, with bovine serum albumin as standard. Initial velocity and enzymatic inhibition experiments were performed in duplicate and repeated three times. The inhibitory patterns were initially determined by double reciprocal plots and re-plots of intercepts and slopes versus inhibitor concentrations. […] Velocities are expressed as μmol of urea/10 min.

B1: Chimera A2 (I129T/N130Y/T131A+∆ P132-T134) of human arginase type I (Homo sapiens; DEL129-131/I129T/L133Y/N130Y/P132T/T134A) (protein)
chain: MSAKSRTIGIIGAPFSKGQPRGGVEEGPTVLRKAGLLEKLKEQECDVKDYGDLPFADIPNDSPFQIVKNPRSVGKASEQLAGKVAEVKKNGRISLVLGGDHSLAIGSISGHARVHPDLGVIWVDAHTDTYATTSGNLHGQPVSFLLKELKGKIPDVPGFSWVTPCISAKDIVYIGLRDVDPGEHYILKTLGIKYFSMTEVDRLGIGKVMEETLSYLLGRKKRPIHLSFDVDGLDPSFTPATGTPVVGGLTYREGLYITEEIYKTGLLSGLDIMEVNPSLGKTPEEVTRTVNTAVAITLACFGLAREGNHKPIDYLNPPK
notes: made in house; host or cells: E. coli JM109
Km [1]: 6000 ± 1000 µM | kcat [1]: 1.1 ± 0.2 s⁻¹ | kcat/Km [1]: 180 M⁻¹ s⁻¹

B2: human arginase type I S137C-N139D (Homo sapiens; N139D/S137C) (protein)
chain: MSAKSRTIGIIGAPFSKGQPRGGVEEGPTVLRKAGLLEKLKEQECDVKDYGDLPFADIPNDSPFQIVKNPRSVGKASEQLAGKVAEVKKNGRISLVLGGDHSLAIGSISGHARVHPDLGVIWVDAHTDINTPLTTTCGDLHGQPVSFLLKELKGKIPDVPGFSWVTPCISAKDIVYIGLRDVDPGEHYILKTLGIKYFSMTEVDRLGIGKVMEETLSYLLGRKKRPIHLSFDVDGLDPSFTPATGTPVVGGLTYREGLYITEEIYKTGLLSGLDIMEVNPSLGKTPEEVTRTVNTAVAITLACFGLAREGNHKPIDYLNPPK
notes: as for B1
Km [2]: 900 µM | kcat [2]: 1.1 s⁻¹ | kcat/Km [2]: 1200 M⁻¹ s⁻¹

B3: human arginase type I S137C (Homo sapiens; S137C) (protein)
chain: B2 chain with D139N
notes: as for B1
Km [3]: 7500 µM | kcat [3]: 1.8 s⁻¹ | kcat/Km [3]: 240 M⁻¹ s⁻¹

B4: human arginase type I N139D (Homo sapiens; N139D) (protein)
chain: B2 chain with C137S
notes: as for B1
Km [4]: 5300 µM | kcat [4]: 1.3 s⁻¹ | kcat/Km [4]: 250 M⁻¹ s⁻¹

B5: human arginase type I N130D-S137C-N139D (Homo sapiens; N130D/N139D/S137C) (protein)
chain: B2 chain with N130D
notes: as for B1
Km [5]: 1600 µM | kcat [5]: 0.9 s⁻¹ | kcat/Km [5]: 560 M⁻¹ s⁻¹

B6: human arginase type I N130D-S137C (Homo sapiens; N130D/S137C) (protein)
chain: B2 chain with N130D, D139N
notes: as for B1
Km [6]: 1700 µM | kcat [6]: 2.3 s⁻¹ | kcat/Km [6]: 1300 M⁻¹ s⁻¹

B7: human arginase type I N130D (Homo sapiens; N130D) (protein)
chain: B2 chain with N130D, C137S, D139N
notes: as for B1
Km [7]: 1400 µM | kcat [7]: 3 s⁻¹ | kcat/Km [7]: 2100 M⁻¹ s⁻¹

B8: human arginase type I N130D-N139D (Homo sapiens; N130D/N139D) (protein)
chain: B2 chain with N130D, C137S
notes: as for B1
Km [8]: 1100 µM | kcat [8]: 1.6 s⁻¹ | kcat/Km [8]: 1400 M⁻¹ s⁻¹

B9: E. coli agmatinase (Escherichia coli K-12) (protein)
chain: MSTLGHQYDNSLVSNAFGFLRLPMNFQPYDSDADWVITGVPFDMATSGRAGGRHGPAAIRQVSTNLAWEHNRFPWNFDMRERLNVVDCGDLVYAFGDAREMSEKLQAHAEKLLAAGKRMLSFGGDHFVTLPLLRAHAKHFGKMALVHFDAHTDTYANGCEFDHGTMFYTAPKEGLIDPNHSVQIGIRTEFDKDNGFTVLDACQVNDRSVDDVIAQVKQIVGDMPVYLTFDIDCLDPAFAPGTGTPVIGGLTSDRAIKLVRGLKDLNIVGMDVVEVAPAYDQSEITALAAATLALEMLYIQAAKKGE
Km [9]: 1100 µM | kcat [9]: 120 s⁻¹ | kcat/Km [9]: 110000 M⁻¹ s⁻¹
